Data: publication PMC8034623
Where two headings read alike, the source gives them in different places.

Assays:
Test in all cases: EMSA
[1] = target: T1, LuxR (Vibrio alginolyticus, UniProt B4X9Q4 1-204)
T1 sequence: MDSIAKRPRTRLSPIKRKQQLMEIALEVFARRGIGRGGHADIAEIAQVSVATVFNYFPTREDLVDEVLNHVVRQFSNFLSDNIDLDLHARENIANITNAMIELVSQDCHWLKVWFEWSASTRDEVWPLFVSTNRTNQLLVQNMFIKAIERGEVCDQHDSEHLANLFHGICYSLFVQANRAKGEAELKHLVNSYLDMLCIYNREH

[2] = target: T2, LuxR ΔLuxR-arm (Vibrio alginolyticus, UniProt B4X9Q4 12-204, del2-11)
T2 sequence: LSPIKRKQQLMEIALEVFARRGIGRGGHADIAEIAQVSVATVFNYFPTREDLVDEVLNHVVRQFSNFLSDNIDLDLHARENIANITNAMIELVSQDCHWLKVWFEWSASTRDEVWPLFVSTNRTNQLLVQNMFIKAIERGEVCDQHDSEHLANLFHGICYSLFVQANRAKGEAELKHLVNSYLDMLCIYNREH

[3] = target: T3, LuxR R11A (Vibrio alginolyticus, UniProt B4X9Q4 1-204, R11A)
T3 sequence: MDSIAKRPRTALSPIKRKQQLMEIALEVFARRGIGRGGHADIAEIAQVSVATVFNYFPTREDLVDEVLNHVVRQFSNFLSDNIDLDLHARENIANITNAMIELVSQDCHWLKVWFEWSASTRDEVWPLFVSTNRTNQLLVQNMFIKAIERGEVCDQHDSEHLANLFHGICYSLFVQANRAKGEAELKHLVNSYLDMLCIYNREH

[4] = target: T4, LuxR R9/11A (Vibrio alginolyticus, UniProt B4X9Q4 1-204, R9A;R11A)
T4 sequence: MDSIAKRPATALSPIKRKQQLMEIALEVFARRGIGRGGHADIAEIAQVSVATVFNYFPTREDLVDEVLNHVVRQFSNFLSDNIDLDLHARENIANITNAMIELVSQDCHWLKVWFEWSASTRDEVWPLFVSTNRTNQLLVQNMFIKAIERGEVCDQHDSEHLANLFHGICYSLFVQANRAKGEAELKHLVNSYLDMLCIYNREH

[5] = target: T5, LuxR R9A (Vibrio alginolyticus, UniProt B4X9Q4 1-204, R9A)
T5 sequence: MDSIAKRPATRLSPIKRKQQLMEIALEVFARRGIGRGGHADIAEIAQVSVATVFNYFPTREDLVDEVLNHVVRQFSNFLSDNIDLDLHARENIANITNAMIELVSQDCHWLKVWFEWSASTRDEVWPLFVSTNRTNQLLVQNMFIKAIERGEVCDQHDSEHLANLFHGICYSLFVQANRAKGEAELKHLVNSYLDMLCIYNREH

[6] = target: T6, LuxR K16A (Vibrio alginolyticus, UniProt B4X9Q4 1-204, K16A)
T6 sequence: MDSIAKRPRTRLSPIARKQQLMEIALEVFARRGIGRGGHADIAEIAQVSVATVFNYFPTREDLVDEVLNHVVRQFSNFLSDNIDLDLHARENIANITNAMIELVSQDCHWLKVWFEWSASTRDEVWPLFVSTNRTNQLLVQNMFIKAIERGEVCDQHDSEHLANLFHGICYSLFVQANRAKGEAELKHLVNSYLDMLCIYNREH

[7] = target: T1, LuxR; remark: listed apart in the source
[8] = target: T1, LuxR; remark: listed apart in the source

B1: GC-rich control 51-bp (dsDNA)
DNA 1: CTAAATTTATCAATACCGCGTCACGGAGGGGTGCGCCATTGTTCTACAGAT
DNA 2: ATCTGTAGAACAATGGCGCACCCCTCCGTGACGCGGTATTGATAAATTTAG
B1: no binding [1].

B2: actDNA 51-bp probe (dsDNA)
DNA 1: CTAAATTTATCAATAATAATGACATTACTGTATATAAATTGTTCTACAGAT
DNA 2: ATCTGTAGAACAATTTATATACAGTAATGTCATTATTATTGATAAATTTAG
B2: no binding [2]; no binding [3]; no binding [4]. The Kd [5] was 698 nM, the Kd [1] was 449 nM and the Kd [6] was 329 nM.

B3: AM5 (A1T, A4T, A22T) (dsDNA)
DNA 1: CTAAATTTATCAATATTATTGACATTACTGTATATATATTGTTCTACAGAT
DNA 2: ATCTGTAGAACAATATATATACAGTAATGTCAATAATATTGATAAATTTAG
B3: binds [7].

B4: AM2 (A4T, T18A) (dsDNA)
DNA 1: CTAAATTTATCAATAATATTGACATTACTGTAAATAAATTGTTCTACAGAT
DNA 2: ATCTGTAGAACAATTTATTTACAGTAATGTCAATATTATTGATAAATTTAG
B4: binds [8].

B5: AM3 (T18A) (dsDNA)
DNA 1: CTAAATTTATCAATAATAATGACATTACTGTAAATAAATTGTTCTACAGAT
DNA 2: ATCTGTAGAACAATTTATTTACAGTAATGTCATTATTATTGATAAATTTAG
B5: binds [8].

B6: AM4 (A17C, T18A) (dsDNA)
DNA 1: CTAAATTTATCAATAATAATGACATTACTGTCAATAAATTGTTCTACAGAT
DNA 2: ATCTGTAGAACAATTTATTGACAGTAATGTCATTATTATTGATAAATTTAG
B6: binds [8].

B7: AM6 (A4T) (dsDNA)
DNA 1: CTAAATTTATCAATAATATTGACATTACTGTATATAAATTGTTCTACAGAT
DNA 2: ATCTGTAGAACAATTTATATACAGTAATGTCAATATTATTGATAAATTTAG
B7: binds [7].

B8: AM7 (A3C) (dsDNA)
DNA 1: CTAAATTTATCAATAATCATGACATTACTGTATATAAATTGTTCTACAGAT
DNA 2: ATCTGTAGAACAATTTATATACAGTAATGTCATGATTATTGATAAATTTAG
B8 gave a Kd [1] of 636 nM.

B9: AM1 (T2A) (dsDNA)
DNA 1: CTAAATTTATCAATAAAAATGACATTACTGTATATAAATTGTTCTACAGAT
DNA 2: ATCTGTAGAACAATTTATATACAGTAATGTCATTTTTATTGATAAATTTAG
B9 was tested, and the Kd [1] was 1690 nM.

B10: repDNA 51-bp probe (dsDNA)
DNA 1: CTAAATTTATCAATATTATTGATAAAATTATCAATATATTGTTCTACAGAT
DNA 2: ATCTGTAGAACAATATATTGATAATTTTATCAATAATATTGATAAATTTAG
For B10, the Kd [3] was 1060 nM, the Kd [5] was 434 nM and the Kd [1] was 157 nM.
